Test results reported in the supplement of paper PMC10266784.

B1: library; numbered along this chain (parent)
chain: MAAAAAAAAEQQSSNGPVKKSMREKAVERRSVNKEHNSNFKAGYIPIDEDRLHKTGLRGRKGNLAICVIILLFILAVINLIITLVIWAVIRIGPNGCDSMEFHESGLLRFKQVSDMGVIHPLYKSTVGGRRNENLVITGNNQPIVFQQGTTKLSVENNKTSITSDIGMQFFDPRTQNILFSTDYETHEFHLPSGVKSLNVQKASTERITSNATSDLNIKVDGRAIVRGNEGVFIMGKTIEFHMGGNMELKAENSIILNGSVMVSTTRLPSSSSGDQLGSGDWVRYKLCMCADGTLFKVQVTSQNMGCQISDNPCGNTH

Variants of: B1
Test: SGCB cell-surface expression functional score (HA stain, bin4 vs bin1, normalised to synonymous) (log10 ratio); higher = more cell-surface SGCB (functional)
Experimental: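 Deep mutational scan of full-length human SGCB (YFP-SGCB-HA, NNN codon sublibraries A-F) delivered by lentivirus at low MOI into ADG-HEK293 cells stably expressing SGCA, SGCD and SGCG. YFP-positive cells were stained for surface HA on unpermeabilized cells and FACS-sorted into bins. The functional score is log10(frequency in high bin 4 / frequency in low bin 1), normalised per chunk so that synonymous variants have mean 0 and SD 0.5. Scores are the median over codons and over duplicate biological replicates; scores below -0.5 are called non-functional. Scale: negative means deleterious.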

SGCB cell-surface expression functional score (log10): each site, then its substitutions
R30: D 0.85; K 0.16; V -0.05; S 0.04; I -0.19; L 0.15; H -0.02; T 0.19; A 0.22; P -0.15; E 0.42; W 0.33; N 0.64; Q 0.15; F 0.27; G 0.59; M -0.06; Y -0.56; C 0.31
R29: N 0.21; C 0.5; D -0.22; V -0.29; P 0.32; H -0.15; Y 0.23; I 0.13; M -0.81; F -0.17; A 0.46; S 0.25; T -0.04; Q 0.16; E 0.41; W 0.21; G 0.3; K -0.66; L -0.3
V32: S 0.11; F -0.5; A 0.26; K -0.04; Y -0.45; W -0.05; P 0.11; M -0.13; I 0.36; T -0.08; E -0.59; Q -0.03; N 0.67; D 0.47; C 0.14; L -0.06; G 0.1; R 0.37; H 0.35
K25: H -0.78; Y -0.31; E 0.07; A -0.05; M -0.1; N 0.42; C 0.39; R -0.14; T 0.27; V 0.16; P 0.05; F -0.28; I 0.13; D 0.19; W -0.25; Q 0.5; L 0.18; G -0.06; S 0.46
N37: G -0.15; H 0.41; Y -0.46; W -0.53; E 0.3; I 0.02; P -0.1; T -0.11; F -0.14; L 0.05; R -0.21; A 0.08; V -0.13; M -0.37; Q -0.21; K -0.39; C 0.35; D -0.35; S -0.21
H36: C -0.16; Q 0.22; D 0.26; F -0.16; V 0.28; G 0.11; W -0.09; Y 0.15; L -0.04; T -0.13; P 0.32; S 0.21; K 0.53; E 0.05; I 0.09; R -0.04; N 0.25; M -0.06; A 0.35
N33: L -0.11; M 0.11; P 0.04; S -0.01; D 0.4; E 0.11; C -0.01; K 0.24; A 0.36; R 0.1; Y 0.04; V 0.23; F 0.1; Q -0.23; T -0.07; G 0.33; I 0.03; W -0.14; H 0.48
S21: E -0.28; L -0.08; T 0.07; M -0.02; I 0.3; D 0.33; K 0.75; V 0.14; W 0.3; Q -0.25; P 0.12; R 0.08; G 0.23; N 0.32; F -0.32; H 0.03; Y -0.19
R23: H 0.2; G 0.48; E 0.28; M -0.27; Q 0.33; V 0.59; C 0.49; K -0.04; A -0.06; F 0.12; W -0.61; L 0.16; S -0.16; D -0.13; Y 0.05; N 0.03; P 0.31; I -0.31; T 0.24
M22: C 0.56; S 0.52; V 0.01; W 0.08; E 0.07; K 0.08; T 0.16; Y -0.14; I -0.22; A 0.08; L 0.37; N 0.39; F 0.1; G -0.11; D -0.21; R 0.01; Q 0.27; H 0.19; P 0.17
S38: I -0.09; A -0.36; N 0.37; G 0.07; F -0.14; P -0.2; D 0.3; E 0.31; K 0.36; L -0.26; C -0.16; H 0.06; M -0.54
K34: A -0.03; G 0.01; S 0.52; M -0.24; Q -0.08; Y 0.56; D 0.26; W 0.11; F -0.14; H 0.6; I -0.05; P 0.25; N -0.07; T 0.27; E 0.34; V 0.44; C 0.33; R 0.1; L 0.21
E24: S 0.26; Y -0.19; R -0.41; H 0.46; G 0.08; A 0; M -0.63; W 0.05; K 0.09; V 0.26; N 0.02; I 0.08; D 0.17; P 0; T 0.2; Q 0.01; F -0.05; C -0.3; L 0.02
E35: L -0.2; D 0.11; I 0.08; F -0.1; A 0.3; H 0.32; T 0.06; V 0.1; R 0.18; Q -0.06; M 0.1; S 0.03; Y 0.26; C -0.07; K 0.23; P -0.21; G 0.11; N 0.01; W 0.28
V27: H 0.05; Q 0.09; R 0.06; W 0.1; T 0.04; S 0.13; D -0.2; M -0.41; L 0.26; Y 0.26; F 0.28; G -0.22; C -0.05; E 0.04; K 0.02; A 0.22; N 0.45; P -0.17; I 0.03
A26: F 0.47; I 0.06; Y -0.11; M 0.77; N -0.24; C -0.13; W 0.15; D 0.34; R 0.15; K 0.41; E 0.27; H 0.39; L -0.05; G -0.21; S 0.09; P 0.09; Q 0.19; T 0.24; V 0.53
S31: A -0.25; W 0.21; G 0.19; I 0.39; C 0.19; R -0.03; D 0.16; N 0.37; V 0.19; K 0.25; Q -0.35; T 0.06; F -0.24; M -0.69; Y -0.26; H 0.19; L 0.11; E 0.24; P 0.13
E28: I 0.42; R 0.1; F 0.2; A -0.15; P 0.08; M 0.57; Q 0; G -0.33; Y 0.37; W -0.12; L 0.05; D -0.25; S 0.21; K -0.15; N -0.09; T 0.1; H -0.19; C 0.35; V 0.15
